# Measurements from paper PMC8950220, “Impact of Fluorinated Ionic Liquids on Human Phenylalanine Hydroxylase—A Potential Drug Delivery System” (Nanomaterials, 2022).
# B1: human phenylalanine hydroxylase (enzyme, UniProt P00439 1-452, looked up)
# chain: MSTAVLENPGLGRKLSDFGQETSYIEDNCNQNGAISLIFSLKEEVGALAKVLRLFEENDVNLTHIESRPSRLKKDEYEFFTHLDKRSLPALTNIIKILRHDIGATVHELSRDKKKDTVPWFPRTIQELDRFANQILSYGAELDADHPGFKDPVYRARRKQFADIAYNYRHGQPIPRVEYMEEEKKTWGTVFKTLKSLYKTHACYEYNHIFPLLEKYCGFHEDNIPQLEDVSQFLQTCTGFRLRPVAGLLSSRDFLGGLAFRVFHCTQYIRHGSKPMYTPEPDICHELLGHVPLFSDRSFAQFSQEIGLASLGAPDEYIEKLATIYWFTVEFGLCKQGDSIKAYGAGLLSSFGELQYCLSEKPKLLPLELEKTAIQNYTVTEFQPLYYVAESFNDAKEKVRNFAATIPRPFSVRYDPYTQRIEVLDNTQQLKILADSINSEIGILCSALQKIK
# notes: human phenylalanine hydroxylase (hPAH), recombinant full-length, each subunit 52 kDa; No step that cleaves the tag is described, and the enzymatic assays name the protein His6-hPAH, so the tag and linker were probably kept; The tetramer fraction from SEC was the starting material of all assays; also called hPAH; His6-hPAH; source: E. coli Top10, purified (Ni-NTA, SEC on Superdex 200 Increase; …)
# Experiments:
# [1] = target: the molecule itself; test: SEC; Superdex 200 Increase 10/300, 20 mM HEPES pH 7.0, 200 mM NaCl, 277.15 K; tetramer fraction isolated
# [2] = target: the molecule itself; test: native gel or EMSA; blue native PAGE, NativePAGE 4-16% Bis-Tris gel; hPAH with 0-1.2% v/v [N1112(OH)][C4F9SO3], with and without L-Phe
# [3] = target: the molecule itself; test: SAXS; batch mode, 0.9 mg/mL hPAH in 20 mM HEPES pH 7.0, 200 mM NaCl, 0-1.2% v/v [N1112(OH)][C4F9SO3], no L-Phe; volume fractions of oligomers fitted with OLIGOMER
protein,measurement,setting,value
B1,stoichiometry N,[1],4
same,stoichiometry N,[2],8
same,stoichiometry N,[3],2
